In US20190062438A1 (CSL, published 2019):
Residue numbers refer to the chain shown, from its start.

T1: soluble Homo sapiens CD131 comprising a C-terminal 6xHis tag (human, UniProt P32927 17-438)
T1 construct: truncated after Ser438, C-terminal 6xHis; also called shCD131; shβc
T1 sequence: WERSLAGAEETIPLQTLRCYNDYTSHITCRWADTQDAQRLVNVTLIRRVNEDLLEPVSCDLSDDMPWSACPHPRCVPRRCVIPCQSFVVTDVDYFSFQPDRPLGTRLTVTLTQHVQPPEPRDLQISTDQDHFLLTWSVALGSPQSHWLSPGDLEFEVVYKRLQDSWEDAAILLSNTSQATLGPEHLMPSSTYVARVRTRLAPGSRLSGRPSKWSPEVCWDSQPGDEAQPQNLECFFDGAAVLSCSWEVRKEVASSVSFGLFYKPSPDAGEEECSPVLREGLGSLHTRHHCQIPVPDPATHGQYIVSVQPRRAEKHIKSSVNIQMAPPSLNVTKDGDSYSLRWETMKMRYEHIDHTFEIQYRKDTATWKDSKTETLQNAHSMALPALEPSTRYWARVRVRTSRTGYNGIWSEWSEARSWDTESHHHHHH

B1: 9A2-VR39 Fab (Fab, V domains shown)
VH: EVQLLESGGGLVQPGGSLRLSCAASGFTFSHYHMLWVRQAPGKGLEWVSSINGRGRVTYYADSVKGRFTISRDNSKNTLYLQMNSLRAEDTAVYYCARFYDSFFDIWGQGTMVTVSS
VL: DIQMTQSPSSVSASVGDRVTITCRASQGISSWLAWYQQKPGKAPKLLIYAASSLQSGVPSRFSGSGSGTDFTLTISSLQPEDFATYYCQQANSFPITFGQGTRLEIKR
notes: recombinant Fab
B2: 9A2-VR24 Fab (Fab, V domains shown)
VH: B1 VH with S30P, H31W, H33R, M34V, L35H, N52R, G53S, R54S, R56G, V57F
VL: B1 VL
notes: recombinant Fab
B3: 9A2-VR19 Fab (Fab, V domains shown)
VH: B1 VH with N52R, G53S, R54S, R56G, V57F
VL: B1 VL with Q89G, Q90I, A91P, N92I, S93L, F94G
notes: recombinant Fab
B4: 9A2-VR40 Fab (Fab, V domains shown)
VH: B1 VH with R54Y, R56I, V57Q
VL: B1 VL
notes: recombinant Fab
B5: 9A2-VR35 Fab (Fab, V domains shown)
VH: B1 VH with R54F, V57N
VL: B1 VL
notes: recombinant Fab
B6: 9A2-VR32 Fab (Fab, V domains shown)
VH: B1 VH with N52S, R54S, G55V, V57S
VL: B1 VL
notes: recombinant Fab
B7: 9A2-VR20 Fab (Fab, V domains shown)
VH: B1 VH with S30N, H33R, M34V, L35H, N52R, G53S, R54S, R56G, V57F
VL: B1 VL
notes: recombinant Fab
B8: 9A2-VR27 Fab (Fab, V domains shown)
VH: B1 VH with S30T, H33R, M34V, L35H, N52R, G53S, R54S, R56G, V57F
VL: B1 VL
notes: recombinant Fab
B9: 9A2-VR36 Fab (Fab, V domains shown)
VH: B1 VH with N52G, R54D, G55K, V57Q
VL: B1 VL
notes: recombinant Fab
B10: 9A2-VR44 Fab (Fab, V domains shown)
VH: B1 VH with N52R, G53S, R54S, R56G, V57F, F103H
VL: B1 VL
notes: recombinant Fab
B11: 9A2-VR41 Fab (Fab, V domains shown)
VH: B1 VH with R54K, R56W, V57T
VL: B1 VL
notes: recombinant Fab
B12: 9A2-VR26 Fab (Fab, V domains shown)
VH: B1 VH with S30I, H33R, M34V, L35H, N52R, G53S, R54S, R56G, V57F
VL: B1 VL
notes: recombinant Fab
B13: 9A2-VR42 Fab (Fab, V domains shown)
VH: B1 VH with N52G, R54D, G55I, V57Q
VL: B1 VL
notes: recombinant Fab
B14: 9A2-VR21 Fab (Fab, V domains shown)
VH: B1 VH with S30M, H33R, M34V, L35H, N52R, G53S, R54S, R56G, V57F
VL: B1 VL
notes: recombinant Fab

These binders were tested against T1, soluble Homo sapiens CD131 comprising a … (assay: SPR, Fab over captured shCD131).
Method: (§1) Binding kinetics were measured using SPR with a BIAcore™ A-100 instrument (GE Healthcare Life Sciences). An anti-C-terminal Hexa-His antibody (3H3) was immobilized on spots 1, 2, 4 and 5 of each flow cell of a CM-5 sensor chip (GE Healthcare Life Sciences) using amine-coupling chemistry (116). […] As shβc is a dimer, kinetics assays were performed with shβc captured on the sensor surface, and purified Fab injected as the analyte. Avidity effects were avoided by the use of Fab rather than whole IgG.
(§2) shCD131 was captured on spots 1 and 5 of each flow cell for 2 minutes at a concentration of 0.4 μg/ml. […] For some analysis purified Fab was injected over each flow cell for 3 minutes and dissociation was monitored for a further 10 minutes. Regeneration of the surface was performed after each cycle with a 40 second injection of 25 mM glycine, pH 2.0. The analysis was performed with Fabs at several concentrations between 100 and 0.31 nM, with each concentration analyzed twice and in random order. The analysis was performed at a flow rate of 30 μl/min in HBS-EP buffer (10 mM Hepes, 150 mM NaCl, 3 mM EDTA, 0.005% Tween 20, pH 7.4) at 37° C. Responses from spots 2 and 4 of each flow cell, (in which shβc was not captured, but otherwise treated identically), were subtracted from those of spots 1 and 5 respectively to produce reference subtracted data. Reference subtracted responses from a blank injection comprising buffer alone were subtracted from the resultant sensorgrams to produce double referenced data suitable for kinetic analysis. Double-referenced sensorgrams were fitted using non-linear regression to a model describing 1:1 kinetics, including a term for mass transport limitation. The Rₘₐₓ value was fitted locally to account for slight deviations in the level of sCD131 captured, with association rate (kₐ), dissociation rate (kd) and equilibrium dissociation constant (KD) fitted globally.

| Kd [nM] | koff [s⁻¹] | kon [M⁻¹ s⁻¹] | Binder |
| --- | --- | --- | --- |
| 0.27 | 0.00059 | 3e+06 | B1 |
| 0.46 | 0.0011 | 2.3e+06 | B2 |

Molecular target: T1, soluble Homo sapiens CD131 comprising a …
Assay: SPR, Fab over captured shCD131
Remark: another data set of the same source
Method: as §1, §2

| Kd [nM] | koff [s⁻¹] | kon [M⁻¹ s⁻¹] | fold improvement in binding affinity over parental 9A2 [fold] | fold decrease in dissociation rate (kd) compared to parental 9A2 [fold] | fold decrease in the dissociation rate (kd) compared to parental 9A2 [fold] | fold higher affinity compared to parental 9A2 [fold] | Binder |
| --- | --- | --- | --- | --- | --- | --- | --- |
| 30 |  |  |  |  |  |  | B3 |
| 0.52 | 0.00066 | 1.3e+06 |  |  |  |  | B4 |
| 0.34 |  |  |  |  |  |  | B5 |
| 0.34 |  |  |  |  |  |  | B6 |
| 0.58 |  |  |  |  |  |  | B7 |
| 0.47 | 0.0011 | 2.3e+06 |  |  |  |  | B8 |
| 0.3 |  |  |  |  |  |  | B9 |
| 5 |  |  |  |  |  |  | B10 |
| 0.27 | 0.00059 | 3e+06 | ~180 |  |  |  | B1 |
| 0.46 | 0.0011 | 2.3e+06 |  | 87 | 87 | 106 | B2 |
| 0.46 | 0.00076 | 1.7e+06 |  |  |  |  | B11 |
| 0.23 | 0.00055 | 2.4e+06 |  |  |  |  | B12 |
| 0.38 |  |  |  |  |  |  | B13 |
| 0.39 |  |  |  |  |  |  | B14 |
